Assay results: patent US20220098329A1 (Memorial Sloan Kettering, published 2022)

What was measured:
[1] = target: T1, huCD3de antigen (human CD3 delta/epsilon, coated on SPR chip) (human, UniProt P07766 23-126; P04234 22-105); test: SPR (Biacore T200), huCD3de-coated chip
T1 construct: Source and construct are not described; also called CD3 coated chips

[2] = target: T1, huCD3de antigen (human CD3 …); test: SPR (Biacore T200), huCD3de-coated chip, BsAb titrated over chip, two-state reaction model
[3] = target: T2, CD33 on MOLM13-fluc cells (UniProt P20138 18-364, limits assumed); test: flow cytometry, CD33(+) MOLM13-fluc cells
T2 construct: whole, on cells; also called CD33(+) MOLM13-fluc
T2 sequence (P20138 18-364 limits assumed): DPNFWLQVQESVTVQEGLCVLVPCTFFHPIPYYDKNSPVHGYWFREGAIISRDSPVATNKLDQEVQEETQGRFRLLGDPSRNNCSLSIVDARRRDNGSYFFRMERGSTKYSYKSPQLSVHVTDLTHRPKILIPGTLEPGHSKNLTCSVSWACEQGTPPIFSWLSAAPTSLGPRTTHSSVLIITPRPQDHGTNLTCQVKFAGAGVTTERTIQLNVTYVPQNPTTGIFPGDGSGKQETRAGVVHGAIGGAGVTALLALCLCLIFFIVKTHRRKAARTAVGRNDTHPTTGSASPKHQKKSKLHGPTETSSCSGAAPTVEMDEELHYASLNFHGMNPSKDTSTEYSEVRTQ

T1 sequence (P07766 23-126, stated change not applied, chain 1 of 2): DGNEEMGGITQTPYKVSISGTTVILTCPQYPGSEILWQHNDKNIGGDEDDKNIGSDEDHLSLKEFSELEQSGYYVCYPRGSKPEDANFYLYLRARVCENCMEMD
T1 sequence (P04234 22-105, stated change not applied, chain 2 of 2): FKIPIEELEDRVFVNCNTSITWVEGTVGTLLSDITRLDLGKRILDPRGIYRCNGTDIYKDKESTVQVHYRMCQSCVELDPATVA

| Binder | Fold Change (KD CD3, against 2+2) [1] | Kd [2] | binding result [3] |
| --- | --- | --- | --- |
| IgG-Het, heterodimeric IgG with one anti-GD2 Fab and one anti-CD3 Fab (1+1) (bispecific antibody, also called 1+1H; 1 + 1H) light 1: EIVMTQTPATLSVSAGERVTITCKASQSVSNDVTWYQQKPGQAPRLLIYSASNRYSGVPARFSGSGYGTEFTFTISSVQSEDFAVYFCQQDYSSFGQGTKLEIKRTVAAPSVFIFPPSDEQLKSGTASVVCLLNNFYPREAKVQWKVDNALQSGNSQESVTEQDSKDSTYSLSSTLTLSKADYEKHKVYACEVTHQGLSSPVTKSFNRGEC heavy 1: not shown light 2: DIQMTQSPSSLSASVGDRVTITCSASSSVSYMNWYQQTPGKAPKRWIYDTSKLASGVPSRFSGSGSGTDYTFTISSLQPEDIATYYCQQWSSNPFTFGQGTKLQITRTVAAPSVFIFPPSDEQLKSGTASVVCLLNNFYPREAKVQWKVDNALQSGNSQESVTEQDSKDSTYSLSSTLTLSKADYEKHKVYACEVTHQGLSSPVTKSFNRGEC heavy 2: not shown | 6.8 fold | 70 nM | – |
| 2+2 IgG-[L]-scFv bispecific antibody, anti-GD2 Fab x anti-CD3 scFv (2(GD2)+2(CD3)) (bispecific antibody, Homodimeric format; also called 2+2 BsAb; parental 2+2) light: EIVMTQTPATLSVSAGERVTITCKASQSVSNDVTWYQQKPGQAPRLLIYSASNRYSGVPARFSGSGYGTEFTFTISSVQSEDFAVYFCQQDYSSFGQGTKLEIKRTVAAPSVFIFPPSDEQLKSGTASVVCLLNNFYPREAKVQWKVDNALQSGNSQESVTEQDSKDSTYSLSSTLTLSKADYEKHKVYACEVTHQGLSSPVTKSFNRGECTSGGGGSGGGGSGGGGSQVQLVQSGGGVVQPGRSLRLSCKASGYTFTRYTMHWVRQAPGKCLEWIGYINPSRGYTNYNQKFKDRFTISRDNSKNTAFLQMDSLRPEDTGVYFCARYYDDHYSLDYWGQGTPVTVSSGGGGSGGGGSGGGGSGGGGSGGGGSGGGGSDIQMTQSPSSLSASVGDRVTITCSASSSVSYMNWYQQTPGKAPKRWIYDTSKLASGVPSRFSGSGSGTDYTFTISSLQPEDIATYYCQQWSSNPFTFGCGTKLQITR heavy: not shown | – | 10 nM | – |
| 2+1 IgG-[L]-scFv variant, two anti-GD2 Fabs and one anti-CD3 scFv (2(GD2)+1(CD3)) (bispecific antibody, Heterodimer made by Fab arm exchange; Choice of the first anti-GD2 set as for m1; also called 2+1 BsAb) light 1: EIVMTQTPATLSVSAGERVTITCKASQSVSNDVTWYQQKPGQAPRLLIYSASNRYSGVPARFSGSGYGTEFTFTISSVQSEDFAVYFCQQDYSSFGQGTKLEIKRTVAAPSVFIFPPSDEQLKSGTASVVCLLNNFYPREAKVQWKVDNALQSGNSQESVTEQDSKDSTYSLSSTLTLSKADYEKHKVYACEVTHQGLSSPVTKSFNRGECTSGGGGSGGGGSGGGGSQVQLVQSGGGVVQPGRSLRLSCKASGYTFTRYTMHWVRQAPGKCLEWIGYINPSRGYTNYNQKFKDRFTISRDNSKNTAFLQMDSLRPEDTGVYFCARYYDDHYSLDYWGQGTPVTVSSGGGGSGGGGSGGGGSGGGGSGGGGSGGGGSDIQMTQSPSSLSASVGDRVTITCSASSSVSYMNWYQQTPGKAPKRWIYDTSKLASGVPSRFSGSGSGTDYTFTISSLQPEDIATYYCQQWSSNPFTFGCGTKLQITR light 2: EIVMTQTPATLSVSAGERVTITCKASQSVSNDVTWYQQKPGQAPRLLIYSASNRYSGVPARFSGSGYGTEFTFTISSVQSEDFAVYFCQQDYSSFGQGTKLEIKRTVAAPSVFIFPPSDEQLKSGTASVVCLLNNFYPREAKVQWKVDNALQSGNSQESVTEQDSKDSTYSLSSTLTLSKADYEKHKVYACEVTHQGLSSPVTKSFNRGEC heavy 1: QVQLVESGPGVVQPGRSLRISCAVSGFSVTNYGVHWVRQPPGKGLEWLGVIWAGGITNYNSAFMSRLTISKDNSKNTVYLQMNSLRAEDTAMYYCASRGGHYGYALDYWGQGTLVTVSSASTKGPSVFPLAPSSKSTSGGTAALGCLVKDYFPEPVTVSWNSGALTSGVHTFPAVLQSSGLYSLSSVVTVPSSSLGTQTYICNVNHKPSNTKVDKRVEPKSCDKTHTCPPCPAPELLGGPSVFLFPPKPKDTLMISRTPEVTCVVVDVSHEDPEVKFNWYVDGVEVHNAKTKPREEQYASTYRVVSVLTVLHQDWLNGKEYKCAVSNKALPAPIEKTISKAKGQPREPQVYTLPPSRDELTKNQVSLTCLVKGFYPSDIAVEWESNGQPENNYKTTPPVLDSDGSFLLYSKLTVDKSRWQQGNVFSCSVMHEALHNHYTQKSLSLSPGK heavy 2: QVQLVESGPGVVQPGRSLRISCAVSGFSVTNYGVHWVRQPPGKGLEWLGVIWAGGITNYNSAFMSRLTISKDNSKNTVYLQMNSLRAEDTAMYYCASRGGHYGYALDYWGQGTLVTVSSASTKGPSVFPLAPSSKSTSGGTAALGCLVKDYFPEPVTVSWNSGALTSGVHTFPAVLQSSGLYSLSSVVTVPSSSLGTQTYICNVNHKPSNTKVDKRVEPKSCDKTHTCPPCPAPELLGGPSVFLFPPKPKDTLMISRTPEVTCVVVDVSHEDPEVKFNWYVDGVEVHNAKTKPREEQYASTYRVVSVLTVLHQDWLNGKEYKCAVSNKALPAPIEKTISKAKGQPREPQVYTLPPSRDELTKNQVSLTCLVKGFYPSDIAVEWESNGQPENNYKTTPPVLDSDGSFFLYSRLTVDKSRWQQGNVFSCSVMHEALHNHYTQKSLSLSPGK | 30.1 fold | 310 nM | – |
| 1+2 IgG-[L]-scFv variant, one anti-GD2 Fab, one irrelevant (anti-CD33) Fab, two anti-CD3 scFv (1(GD2)+2(CD3)) (bispecific antibody, also called 1+2 BsAb) light 1: EIVMTQTPATLSVSAGERVTITCKASQSVSNDVTWYQQKPGQAPRLLIYSASNRYSGVPARFSGSGYGTEFTFTISSVQSEDFAVYFCQQDYSSFGQGTKLEIKRTVAAPSVFIFPPSDEQLKSGTASVVCLLNNFYPREAKVQWKVDNALQSGNSQESVTEQDSKDSTYSLSSTLTLSKADYEKHKVYACEVTHQGLSSPVTKSFNRGECTSGGGGSGGGGSGGGGSQVQLVQSGGGVVQPGRSLRLSCKASGYTFTRYTMHWVRQAPGKCLEWIGYINPSRGYTNYNQKFKDRFTISRDNSKNTAFLQMDSLRPEDTGVYFCARYYDDHYSLDYWGQGTPVTVSSGGGGSGGGGSGGGGSGGGGSGGGGSGGGGSDIQMTQSPSSLSASVGDRVTITCSASSSVSYMNWYQQTPGKAPKRWIYDTSKLASGVPSRFSGSGSGTDYTFTISSLQPEDIATYYCQQWSSNPFTFGCGTKLQITR heavy 1: not shown light 2: EIVLTQSPATLSVSLGERATISCRASESVDNYGISFMNWFQQKPGQPPRLLIYAASNQGSGVPARFSGSGPGTDFTLTISSMEPEDFAMYFCQQSKEVPWTFGGGTKLEIKRTVAAPSVFIFPPSDEQLKSGTASVVCLLNNFYPREAKVQWKVDNALQSGNSQESVTEQDSKDSTYSLSSTLTLSKADYEKHKVYACEVTHQGLSSPVTKSFNRGECTSGGGGSGGGGSGGGGSQVQLVQSGGGVVQPGRSLRLSCKASGYTFTRYTMHWVRQAPGKCLEWIGYINPSRGYTNYNQKFKDRFTISRDNSKNTAFLQMDSLRPEDTGVYFCARYYDDHYSLDYWGQGTPVTVSSGGGGSGGGGSGGGGSGGGGSGGGGSGGGGSDIQMTQSPSSLSASVGDRVTITCSASSSVSYMNWYQQTPGKAPKRWIYDTSKLASGVPSRFSGSGSGTDYTFTISSLQPEDIATYYCQQWSSNPFTFGCGTKLQITR heavy 2: not shown | 1 fold | 11 nM | – |

More lines, now with the values ahead:

| Fold Change (KD CD3, against 2+2) [1] | Kd [2] | binding result [3] | Binder |
| --- | --- | --- | --- |
| 8.5 fold | 88 nM | – | 1+1T IgG-[L]-scFv variant, one anti-GD2 Fab and one anti-CD3 scFv in trans, second Fab irrelevant (anti-CD33) (bispecific antibody) light 1: EIVMTQTPATLSVSAGERVTITCKASQSVSNDVTWYQQKPGQAPRLLIYSASNRYSGVPARFSGSGYGTEFTFTISSVQSEDFAVYFCQQDYSSFGQGTKLEIKRTVAAPSVFIFPPSDEQLKSGTASVVCLLNNFYPREAKVQWKVDNALQSGNSQESVTEQDSKDSTYSLSSTLTLSKADYEKHKVYACEVTHQGLSSPVTKSFNRGEC heavy 1: not shown light 2: EIVLTQSPATLSVSLGERATISCRASESVDNYGISFMNWFQQKPGQPPRLLIYAASNQGSGVPARFSGSGPGTDFTLTISSMEPEDFAMYFCQQSKEVPWTFGGGTKLEIKRTVAAPSVFIFPPSDEQLKSGTASVVCLLNNFYPREAKVQWKVDNALQSGNSQESVTEQDSKDSTYSLSSTLTLSKADYEKHKVYACEVTHQGLSSPVTKSFNRGECTSGGGGSGGGGSGGGGSQVQLVQSGGGVVQPGRSLRLSCKASGYTFTRYTMHWVRQAPGKCLEWIGYINPSRGYTNYNQKFKDRFTISRDNSKNTAFLQMDSLRPEDTGVYFCARYYDDHYSLDYWGQGTPVTVSSGGGGSGGGGSGGGGSGGGGSGGGGSGGGGSDIQMTQSPSSLSASVGDRVTITCSASSSVSYMNWYQQTPGKAPKRWIYDTSKLASGVPSRFSGSGSGTDYTFTISSLQPEDIATYYCQQWSSNPFTFGCGTKLQITR heavy 2: not shown |
| – | – | binds | 2+2 IgG-[L]-scFv, anti-CD33 Fab x anti-CD3 scFv (bispecific antibody, also called 2+2 (CD33); anti-CD33/CD3 IgG-[L]-scFv) light: EIVLTQSPATLSVSLGERATISCRASESVDNYGISFMNWFQQKPGQPPRLLIYAASNQGSGVPARFSGSGPGTDFTLTISSMEPEDFAMYFCQQSKEVPWTFGGGTKLEIKRTVAAPSVFIFPPSDEQLKSGTASVVCLLNNFYPREAKVQWKVDNALQSGNSQESVTEQDSKDSTYSLSSTLTLSKADYEKHKVYACEVTHQGLSSPVTKSFNRGECTSGGGGSGGGGSGGGGSQVQLVQSGGGVVQPGRSLRLSCKASGYTFTRYTMHWVRQAPGKCLEWIGYINPSRGYTNYNQKFKDRFTISRDNSKNTAFLQMDSLRPEDTGVYFCARYYDDHYSLDYWGQGTPVTVSSGGGGSGGGGSGGGGSGGGGSGGGGSGGGGSDIQMTQSPSSLSASVGDRVTITCSASSSVSYMNWYQQTPGKAPKRWIYDTSKLASGVPSRFSGSGSGTDYTFTISSLQPEDIATYYCQQWSSNPFTFGCGTKLQITR heavy: not shown |
| 11 fold | 110 nM | – | 1+1C IgG-[L]-scFv variant, one anti-GD2 Fab and one anti-CD3 scFv in cis, second Fab irrelevant (anti-CD33) (bispecific antibody) light 1: EIVMTQTPATLSVSAGERVTITCKASQSVSNDVTWYQQKPGQAPRLLIYSASNRYSGVPARFSGSGYGTEFTFTISSVQSEDFAVYFCQQDYSSFGQGTKLEIKRTVAAPSVFIFPPSDEQLKSGTASVVCLLNNFYPREAKVQWKVDNALQSGNSQESVTEQDSKDSTYSLSSTLTLSKADYEKHKVYACEVTHQGLSSPVTKSFNRGECTSGGGGSGGGGSGGGGSQVQLVQSGGGVVQPGRSLRLSCKASGYTFTRYTMHWVRQAPGKCLEWIGYINPSRGYTNYNQKFKDRFTISRDNSKNTAFLQMDSLRPEDTGVYFCARYYDDHYSLDYWGQGTPVTVSSGGGGSGGGGSGGGGSGGGGSGGGGSGGGGSDIQMTQSPSSLSASVGDRVTITCSASSSVSYMNWYQQTPGKAPKRWIYDTSKLASGVPSRFSGSGSGTDYTFTISSLQPEDIATYYCQQWSSNPFTFGCGTKLQITR heavy 1: not shown light 2: EIVLTQSPATLSVSLGERATISCRASESVDNYGISFMNWFQQKPGQPPRLLIYAASNQGSGVPARFSGSGPGTDFTLTISSMEPEDFAMYFCQQSKEVPWTFGGGTKLEIKRTVAAPSVFIFPPSDEQLKSGTASVVCLLNNFYPREAKVQWKVDNALQSGNSQESVTEQDSKDSTYSLSSTLTLSKADYEKHKVYACEVTHQGLSSPVTKSFNRGEC heavy 2: not shown |
